Values of other authors as cited in patent US5397694A, “Protease inhibitor” (Merck Patent GmbH, priority 1989, dated 1995).

B1: Eglin C: Eglin variant with tyrosine where Eglin B has histidine (protein, UniProt P01051 1-70, looked up)
Eglin C: TEFGSELKSFPEVVGKTVDQAREYFTLHYPQYDVYFLPEGSPVTLDLRYNRVRVFYNPGTNVVNHVPHVG
- isoelectric point (pI), published report: 6.45
